T1: 가용형 인간 FcγRIIb (human, UniProt P31994 43-217, limits assumed)
T1 construct: also called hFcγRIIb; hFcγRII2b; not shown: His tag
T1 sequence (looked up): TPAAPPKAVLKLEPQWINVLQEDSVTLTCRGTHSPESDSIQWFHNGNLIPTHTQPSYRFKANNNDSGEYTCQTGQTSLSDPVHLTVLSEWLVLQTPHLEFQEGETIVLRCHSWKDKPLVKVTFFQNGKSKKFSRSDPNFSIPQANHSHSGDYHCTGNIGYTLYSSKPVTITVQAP


Experiments:
[1] = target: T2, 가용형 인간 FcγRIa (human, UniProt P12314 16-292, limits assumed); test: SPR (BIACORE T200), antibody captured on rProtein L, soluble FcγR as analyte, 20C
T2 construct: also called hFcγRIa; not shown: His tag
T2 sequence (P12314 16-292 limits assumed): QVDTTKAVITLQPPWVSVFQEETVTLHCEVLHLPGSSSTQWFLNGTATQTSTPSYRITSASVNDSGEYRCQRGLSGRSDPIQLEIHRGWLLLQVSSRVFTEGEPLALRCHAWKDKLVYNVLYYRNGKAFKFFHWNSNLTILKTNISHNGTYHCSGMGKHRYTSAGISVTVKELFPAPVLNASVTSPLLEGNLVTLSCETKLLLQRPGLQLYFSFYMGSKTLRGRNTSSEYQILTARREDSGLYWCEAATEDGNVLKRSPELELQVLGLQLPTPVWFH

[2] = target: T3, 가용형 인간 FcγRIIIa (human, UniProt P08637 17-208, limits assumed); test: as above
T3 construct: also called hFcγRIIIa; not shown: His tag
T3 sequence (P08637 17-208 limits assumed): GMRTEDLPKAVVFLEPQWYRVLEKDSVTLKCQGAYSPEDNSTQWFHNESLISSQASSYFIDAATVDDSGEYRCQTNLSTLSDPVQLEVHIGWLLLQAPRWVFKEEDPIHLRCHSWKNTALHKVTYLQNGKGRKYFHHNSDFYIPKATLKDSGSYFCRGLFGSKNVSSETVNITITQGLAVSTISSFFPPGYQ

[3] = target: T4, 가용형 필리핀 원숭이 FcγRIIIa (필리핀 원숭이 (cynomolgus monkey), UniProt Q8SPW2 17-208, limits assumed); test: as above
T4 construct: also called cynoFcγRIIIa; not shown: His tag
T4 sequence (Q8SPW2 17-208 limits assumed): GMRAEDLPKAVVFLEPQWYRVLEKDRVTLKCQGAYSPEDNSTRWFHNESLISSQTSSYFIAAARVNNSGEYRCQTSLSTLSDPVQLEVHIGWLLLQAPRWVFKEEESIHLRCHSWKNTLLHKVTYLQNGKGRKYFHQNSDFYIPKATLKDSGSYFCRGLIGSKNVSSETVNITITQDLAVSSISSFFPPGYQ

[4] = target: T1, 가용형 인간 FcγRIIb; test: SPR (BIACORE T200), hFcγRIIb captured by anti-His antibody, IgE-antibody complex as analyte, pH 7.4, 25C

| Binder | binding result [1] | binding result [2] | binding result [3] | binding result [4] |
| --- | --- | --- | --- | --- |
| H1009/L395-F1886s (antibody, also called H1009-F1886s/L395-k0MT) heavy: QVQLVESGGGLVQPGGSLRLSCAASGFTFSDYYLSWVRQAPGKGLEWVGLIRNKDNYHTPEYSASVKGRFTISRDDSKNSLYLTMSDLKTEDTAVYYCARENHRYDVELAYWGQGTLVTVSSASTKGPSVFPLAPSSKSTSGGTAALGCLVKDYFPEPVTVSWNSGALTSGVHTFPAVLQSSGLYSLSSVVTVPSSSLGTQTYICNVNHKPSNTKVDKKVEPKSCDKTHTCPPCPAPELRRGPKVFLFPPKPKDTLMISRTPEVTCVVVDVSHEDPEVKFNWYVDGVEVHNAKTKPREEQYNSTYRVVSVLTVLHQDWLNGKEYKCKVSNKALPAPIEKTISKAKGQPREPQVYTLPPSREEMTKNQVSLTCLVKGFYPSDIAVEWESNGQPENNYKTTPPVLDSDGSFFLYSKLTVDKSRWQQGNVFSCSVLHEALHAHTTRKELSLSP light: DIQMTQSPSSLSASVGDRVTITCRASEIIYSYLAWYQQKPGKAPKLLIYKAKTHADGVPSRFSGSGSGTDFTFTISSLQPEDIATYYCKHHFGFPRTFGQGTKVEIKRTVAAPSVFIFPPSDEQLKSGTASVVCLLNNFYPREAKVQWKVDNALQSGNSQESVTEQDSKDSTYSLSSTLTLSKADYEKHKVYACEVTHQGLSSPVTKSFNRGEC | no binding | no binding | no binding | – |
| H1009/L395-F1974m (antibody, also called H1009-F1974m/L395-k0MT) heavy: QVQLVESGGGLVQPGGSLRLSCAASGFTFSDYYLSWVRQAPGKGLEWVGLIRNKDNYHTPEYSASVKGRFTISRDDSKNSLYLTMSDLKTEDTAVYYCARENHRYDVELAYWGQGTLVTVSSASTKGPSVFPLAPSSKSTSGGTAALGCLVKDYFPEPVTVSWNSGALTSGVHTFPAVLQSSGLYSLSSVVTVPSSSLGTQTYICNVNHKPSNTKVDKKVEPKSCDKTHTCPPCPAPELRRGPSVFLFPPKPKDTLMISRTPEVTCVVVDVSHEDPEVKFNWYVDGVEVHNAKTKPREEQYNSTYRVVSVLTVLHQDWLNGKEYKCKVSNKGLPSSIEKTISKAKGQPREPQVYTLPPSREEMTKNQVSLTCLVKGFYPSDIAVEWESNGQPENNYKTTPPVLDSDGSFFLYSKLTVDKSRWQQGNVFSCSVLHEALHAHTTRKELSLSP light: DIQMTQSPSSLSASVGDRVTITCRASEIIYSYLAWYQQKPGKAPKLLIYKAKTHADGVPSRFSGSGSGTDFTFTISSLQPEDIATYYCKHHFGFPRTFGQGTKVEIKRTVAAPSVFIFPPSDEQLKSGTASVVCLLNNFYPREAKVQWKVDNALQSGNSQESVTEQDSKDSTYSLSSTLTLSKADYEKHKVYACEVTHQGLSSPVTKSFNRGEC | no binding | no binding | no binding | – |
| Ab1H-P1394m/Ab1L (antibody, human IgG1, kappa, Ab1H with Q311K (EU numbering)) heavy: not shown light: DIQMTQSPSSVSASVGDRVTITCQASESIYSGLAWYQQKPGQPPKLLIYDHSTLASGVPSRFSGSGSGTEYALTISSLQPEDFATYYCQHADYAHHSDNVFGGGTKVEIKRTVAAPSVFIFPPSDEQLKSGTASVVCLLNNFYPREAKVQWKVDNALQSGNSQESVTEQDSKDSTYSLSSTLTLSKADYEKHKVYACEVTHQGLSSPVTKSFNRGEC | – | – | – | binds |
